For experiment [1], the target named is human DLL3 endogenously expressed on SHP77 and NCI-H82 cells (human) (UniProt Q9NYJ7). Kind of experiment: FACS SHP77 cells, 100 nM.
Experiment [2] has the same target. Put plainly: FACS SHP77 cells, 0.8 nM.
For experiment [3] the target is unchanged. Kind of experiment: FACS SHP77 cells, 4 nM.
For experiment [4] the target is unchanged. Kind of experiment: FACS SHP77 cells, 0.0064 nM.
Experiment [5] has the same target. Put plainly: FACS SHP77 cells, 20 nM.
Experiment [6] has the same target. Kind of experiment: FACS SHP77 cells, 0.032 nM.
Experiment [7] has the same target. Put plainly: FACS SHP77 cells, 0.00128 nM.
The target is the same in experiment [8]. Kind of experiment: FACS SHP77 cells, 0.16 nM.

Sequence of human DLL3 endogenously expressed on SHP77 and NCI-H82 cells (human) (Q9NYJ7 27-618): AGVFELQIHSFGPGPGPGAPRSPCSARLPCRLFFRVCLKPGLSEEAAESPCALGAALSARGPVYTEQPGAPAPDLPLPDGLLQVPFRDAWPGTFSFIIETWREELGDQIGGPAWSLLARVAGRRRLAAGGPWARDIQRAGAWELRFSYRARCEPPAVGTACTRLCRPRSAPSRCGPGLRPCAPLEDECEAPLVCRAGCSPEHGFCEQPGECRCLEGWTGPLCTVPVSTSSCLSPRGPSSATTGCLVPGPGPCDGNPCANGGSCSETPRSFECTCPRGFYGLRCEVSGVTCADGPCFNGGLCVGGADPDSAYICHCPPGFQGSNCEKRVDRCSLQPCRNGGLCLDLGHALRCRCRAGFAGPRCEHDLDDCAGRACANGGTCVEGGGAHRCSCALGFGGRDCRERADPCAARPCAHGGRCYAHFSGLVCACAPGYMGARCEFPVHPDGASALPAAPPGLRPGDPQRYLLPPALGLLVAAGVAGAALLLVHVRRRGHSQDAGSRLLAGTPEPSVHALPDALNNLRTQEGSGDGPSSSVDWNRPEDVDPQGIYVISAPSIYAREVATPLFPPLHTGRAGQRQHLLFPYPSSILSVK

B1: mab014 scFv-hFc (Fc fusion, not shown: small tags and cut ends; a dimerising Fc or GST)
scFv (part 1 of 2): DIQMTQSSSSFSVSLGDRVTITCKASEDIYNRLAWYQQKPGNTPRLLISGATSLETGVPSRFSGSGSGKDFTLSITSLQTEDVATYYCQQYWSLPWTFGGGTKLEIK
scFv (part 2 of 2): EVQLHQSGPELVKPGTSVKISCKASGYTFTDYYMNWVKQSHGKSLEWIGDINPNHGDTGYNQKFTGKATLTVDKSSSTAYMELRSLTSEDSAVYYCARNFFYYGTTYGWYFDVWGTGTTVTVSS
In the case of B1, the MFI worked out at 1200 MFI in experiment [1]; 461 MFI in experiment [2]; 681 MFI in experiment [3]; 104 MFI in experiment [4]; 829 MFI in experiment [5]; 137 MFI in experiment [6]. Also, the MFI was found to be 96 MFI in experiment [7] and 237 MFI in experiment [8].

B2: mab005 scFv-hFc (Fc fusion, not shown: small tags and cut ends; a dimerising Fc or GST)
scFv (part 1 of 2): DIVLTQSPATLSVTPGDSVSLSCRASQSVSNDLHWYQQKSHESPRLLIKYASQSISGIPSRFSGSGSGTDFTLTINSVETEDFGMYFCQQSNNWPYTFGGGTKLEMK
scFv (part 2 of 2): QVQLQQSGAELMKPGASVTLSCKATGYTLPGYWIEWVKQRPGHGLEWIGEILPGSSSANYNEKFKGKATFTADTSSNTAYMQLSSLTTEDSAIYYCASTYGTSLDYWGQGTTLTVSS
On to B2, for which the MFI in experiment [1] is 543 MFI; in experiment [2], 404 MFI; in experiment [3], 451 MFI; in experiment [4], 125 MFI; in experiment [5], 486 MFI; in experiment [6], 172 MFI. For the same molecule, the MFI was determined as 117 MFI in experiment [7] and 287 MFI in experiment [8].

B3: mab011 scFv-hFc (Fc fusion, not shown: small tags and cut ends; a dimerising Fc or GST)
scFv (part 1 of 2): DIVLTQSPATLSVTPGDSVSLSCRASQSISNNLHWYQQKSHESPRLLIKYASQSISGIPSRFSGSGSGTDFTLSINSVETEDFGMYFCQQSNSWPWTFGGGTKLEIK
scFv (part 2 of 2): EVQLQQSGPELVKPGASVKISCKASGYTFTDYYMNWVKQSHGKSLEWIGDISPNYGGTNYNQKFKGKATLTVDKSSSTACMELRSLTSEDSAVYYCTRSFYYYGTGYDWYFDVWGTGTTVTVSS
On to B3, for which the MFI in experiment [1] came out at 822 MFI; in experiment [2], 417 MFI; in experiment [3] it was 508 MFI; in experiment [4], 103 MFI; in experiment [5] it was 608 MFI; in experiment [6], 146 MFI. Further, the MFI is 90 MFI in experiment [7] and 239 MFI in experiment [8].

B4: mab016 scFv-hFc (Fc fusion, not shown: small tags and cut ends; a dimerising Fc or GST)
scFv (part 1 of 2): DIVMTQSQKFMSTTIGDRVSITCKASQNVGTTVAWYQQKPGQSPNLLLYSTSNRFTGVPDRFTGSGSGTDFTLTITNMQSEDLADYFCQQYNNYPLTFGGGTKLEIK
scFv (part 2 of 2): EVNLEESGGGLVQPGGSMKLSCVASGFAFSNFWMQWVRQSPEKGLEWVAQIRLKSDNYAAHYAESVKGRFTISRDDSKSSVYLQLNNLRAEDTGTYYCTQGNWVGFAYWGQGTLVTVSA
Take B4: the MFI in experiment [1] came to 790 MFI; in experiment [2], 502 MFI; in experiment [3], 546 MFI; in experiment [4], 121 MFI; in experiment [5] it was 653 MFI; in experiment [6] it was 202 MFI. Moreover, the MFI worked out at 96 MFI in experiment [7] and 391 MFI in experiment [8].

B5: mab007 scFv-hFc (Fc fusion, not shown: small tags and cut ends; a dimerising Fc or GST)
scFv (part 1 of 2): DVQITQSPSYLAASPGETITINCRASTSISKYLAWYQERPGKTNKLLIYSGSTLQSGIPSRFRGSGSGTDFTLTISSLEPEDFAMYYCQQHHVYPYTFGGGTKLEIK
scFv (part 2 of 2): QVQLQQPGAELVRPGTSVKLSCKASGYTFTSYWMHWVKQRPGQGLEWIGVIDPSDSLANYNQEFKGKATLTVDTSSSTAYMQLSSLTSEDSAVYYCARDSTVVAPMDYWGQGTSVTVSS
As to B5, the MFI in experiment [1] came out at 521 MFI; in experiment [2], 525 MFI; in experiment [3], 563 MFI; in experiment [4], 135 MFI; in experiment [5], 634 MFI; in experiment [6], 227 MFI. In addition, the MFI in experiment [7] worked out at 103 MFI; in experiment [8], 406 MFI.

B6: mab006 scFv-hFc (Fc fusion, not shown: small tags and cut ends; a dimerising Fc or GST)
scFv (part 1 of 2): DVQITQSPSYLAASPGETITINCRATKSISKYLAWYQEKPGKTNKLLIFSGSTLQSGIPSRFRGSGSGTDFTLTISSLEPEDFAMYYCQQHHEYPYTFGGGTKLEIK
scFv (part 2 of 2): QVQLQQPGAELVRPGTSVKLSCKASGYTFTSYWMHWVRQRPGQGLEWIGVIDPSDSLANYNQEFKGKATLTVDTSSSTAYMQLSSLTSEDSAVYYCARDSTVVAPMDYWGQGTSVTVSS
B6: the MFI in experiment [1] was 876 MFI; in experiment [2] it was 643 MFI; in experiment [3] it was 664 MFI; in experiment [4], 152 MFI; in experiment [5] it was 718 MFI; in experiment [6] it was 267 MFI. The MFI worked out at 112 MFI in experiment [7] and 497 MFI in experiment [8].

B7: mab012 scFv-hFc (Fc fusion, not shown: small tags and cut ends; a dimerising Fc or GST)
scFv (part 1 of 2): DVLMTQTPLSLPVSLGDQASISCRSSQSIVHSDGNTYLEWYLQKPGQSPKLLIYKVSNRFSGVPDRFSGSGSGTDFTLKISRVEAEDLGFYYCFQGSHVPFTFGSGTKLEIK
scFv (part 2 of 2): QVQLQQSGPELVKPGASVKISCKASGYTFTDYYIHWVKQRPGQGLEWIGWTLPGSGSPYYNEKFKGKATLTVDKSSSTAYMLLSSLTSEDSAVYFCARWHYYYGSSYHFDYWGQGTTLTVSS
As to B7, the MFI in experiment [1] was 1100 MFI; in experiment [2] it was 164 MFI; in experiment [3], 337 MFI; in experiment [4], 94 MFI; in experiment [5], 729 MFI; in experiment [6], 98 MFI. For the same molecule, the MFI is 94 MFI in experiment [7] and 110 MFI in experiment [8].

B8: mab002 scFv-hFc (Fc fusion, not shown: small tags and cut ends; a dimerising Fc or GST)
scFv (part 1 of 2): QIVLTQSPAIMSASPGEKVTMTCSARSSVSYMQWYQQKSGTSPKRWIYDTSKLASGVPARFSGSGSGTSYSLTISTMEAEDAATYYCQQWSSDPPTFGGGTKLEIK
scFv (part 2 of 2): QIQLVQSGPELKKPGETVKISCKASGYTFTNYGMNWLKQAPGKGLKWMGWINTYTGESTYADDFKGRFAFSLETSASTVYLQINNLKNEDMATYFCARMGDGYYDFTMDYWGQGTSVTVSS
With B8, the MFI in experiment [1] turned out to be 596 MFI; in experiment [2], 498 MFI; in experiment [3], 535 MFI; in experiment [4] it was 255 MFI; in experiment [5] it was 548 MFI; in experiment [6], 371 MFI. For the same molecule, the figures for the MFI in experiment [7] and in experiment [8] were 197 MFI and 518 MFI, respectively.

B9: mab008 scFv-hFc (Fc fusion, not shown: small tags and cut ends; a dimerising Fc or GST)
scFv (part 1 of 2): DIVMTQSQKFMSTSVGDRVSITCKASQNVGTAVAWYQQKPGQSPKLLIFSASIRYTGVPDRFTGSGSGTDFTLTISNMQSEDLADYFCQQYSSSPYTFGGGTKLEIK
scFv (part 2 of 2): EVQLQQSGPVLVKPGASVKMSCKASGYTFTDYYMNWVKRSHGKSLEWIGIINPYNGGTSYNQKFRGKATLTVDKSSNTAYMELNSLTSEDSAVYYCSRYDYDYDVEGAMDYWGQGTSVTVSS
Turning to B9, the MFI stood at 412 MFI in experiment [1]; 208 MFI in experiment [2]; 365 MFI in experiment [3]; 90 MFI in experiment [4]; 468 MFI in experiment [5]; 98 MFI in experiment [6]. In addition, the MFI turned out to be 82 MFI in experiment [7] and 130 MFI in experiment [8].

Values taken from patent EP4786492A1.
